# Data published in PMC3686096 (Journal of the American Chemical Society, 2013).
# Assay: Control: unseeded Aβ1–40 solution checked for fibrils by TEM or AFM
# Format: physicochemical
# Conditions: unseeded 50 µM Aβ1–40 solution, 30 min incubation
substance,measurement,value
"Aβ1–40: 40-residue β-amyloid peptide, made by solid-phase synthesis; also literature fibrils of unspecified polymorph",fibril formation in unseeded solution,no fibrils were observed
